Test results from the RNAGym collection of RNA variant scans (doi:10.7554/elife.80360).

B1: Hammerhead Ribozyme (parent)
chain: ACCGGAUGUGCUUUCCGGUCUGAUGAGUCCGUGAGGACGAAACAG

Variants of: B1
Test: self-cleavage, relative activity (ratio to wild type); higher = more cleavage; co-transcriptional

Variant	self-cleavage
ACCGGCUGUGCAUUCCGGUCUGAUGAGUCCGUGAGGACGAAACAG	0.826
ACCGGCUGUGCGUUCCGGUCUGAUGAGUCCGUGAGGACGAAACAG	0.991
ACCGGCUGUGCCUUCCGGUCUGAUGAGUCCGUGAGGACGAAACAG	0.899
ACCGGGUGUGCUUUGCGGUCUGAUGAGUCCGUGAGGACGAAACAG	0.54
ACCGGGUGUGCUUUACGGUCUGAUGAGUCCGUGAGGACGAAACAG	0.707
ACCGGGUGUGCUUUUCGGUCUGAUGAGUCCGUGAGGACGAAACAG	0.811
ACCGGGUGUGCUUUCCGGUCUGAUGAGUCCGUGGGGACGAAACAG	0.6
ACCGGGUGUGCUUUCCGGUCUGAUGAGUCCGUGCGGACGAAACAG	0.604
ACCGGGUGUGCUUUCCGGUCUGAUGAGUCCGUGUGGACGAAACAG	0.82
ACCGGGUGUGCUUUCCGGUCUGAUGAGUCCGUAAGGACGAAACAG	0.844
ACCGGGUGUGCUUUCCGGUCUGAUGAGUCCGUCAGGACGAAACAG	0.597
ACCGGGUGUGCUUUCCGGUCUGAUGAGUCCGUUAGGACGAAACAG	0.863
ACCGGGUAUGCUUUCCGGUCUGAUGAGUCCGUGAGGACGAAACAG	1.17
ACCGGGUUUGCUUUCCGGUCUGAUGAGUCCGUGAGGACGAAACAG	0.844
ACCGGGUCUGCUUUCCGGUCUGAUGAGUCCGUGAGGACGAAACAG	0.708
ACCGGGUGUGCUUUCCGGUCUGAUGAGUCCGUGAGGACGAAACAG	0.806
ACCGGGUGUGCUUUCCGGUCUGCUGAGUCCGUGAGGACGAAACAG	0.277
ACCGGGUGUGCUUUCCGGUCUGGUGAGUCCGUGAGGACGAAACAG	0.272
ACCGGGUGUGCUUUCCGGUCUGUUGAGUCCGUGAGGACGAAACAG	0.274

Variant	self-cleavage
ACCGGGUGUGCUUUCCGGUCUGAUGAGUCGGUGAGGACGAAACAG	0.594
ACCGGGUGUGCUUUCCGGUCUGAUGAGUCAGUGAGGACGAAACAG	0.48
ACCGGGUGUGCUUUCCGGUCUGAUGAGUCUGUGAGGACGAAACAG	0.634
ACCGGCUGUGCUUUCCGGUCUGAUGAGUCCGGGAGGACGAAACAG	0.477
ACCGGCUGUGCUUUCCGGUCUGAUGAGUCCGCGAGGACGAAACAG	0.838
ACCGGCUGUGCUUUCCGGUCUGAUGAGUCCGAGAGGACGAAACAG	0.901
ACCGGCUGUGCUUUCCGGUCUGAGGAGUCCGUGAGGACGAAACAG	0.511
ACCGGCUGUGCUUUCCGGUCUGAAGAGUCCGUGAGGACGAAACAG	0.707
ACCGGCUGUGCUUUCCGGUCUGACGAGUCCGUGAGGACGAAACAG	0.387
ACCGGGUGUGCUUUCAGGUCUGAUGAGUCCGUGAGGACGAAACAG	0.825
ACCGGGUGUGCUUUCUGGUCUGAUGAGUCCGUGAGGACGAAACAG	0.762
ACCGGGUGUGCUUUCGGGUCUGAUGAGUCCGUGAGGACGAAACAG	0.537
ACCGGGUGUCCUUUCCGGUCUGAUGAGUCCGUGAGGACGAAACAG	0.889
ACCGGGUGUUCUUUCCGGUCUGAUGAGUCCGUGAGGACGAAACAG	1.1
ACCGGGUGUACUUUCCGGUCUGAUGAGUCCGUGAGGACGAAACAG	0.989
ACCGGGUGUGCUUUCCGGUCUGAUGAGUACGUGAGGACGAAACAG	0.36
ACCGGGUGUGCUUUCCGGUCUGAUGAGUGCGUGAGGACGAAACAG	0.498
ACCGGGUGUGCUUUCCGGUCUGAUGAGUUCGUGAGGACGAAACAG	0.89
ACCGGGUGUGCUUUCCGUUCUGAUGAGUCCGUGAGGACGAAACAG	0.468

Variant	self-cleavage
ACCGGGUGUGCUUUCCGCUCUGAUGAGUCCGUGAGGACGAAACAG	0.351
ACCGGGUGUGCUUUCCGAUCUGAUGAGUCCGUGAGGACGAAACAG	0.486
ACCGGGUGUGCUUUCCGGUCUGAUGAGUCCGUGAGGCCGAAACAG	0.656
ACCGGGUGUGCUUUCCGGUCUGAUGAGUCCGUGAGGUCGAAACAG	0.44
ACCGGGUGUGCUUUCCGGUCUGAUGAGUCCGUGAGGGCGAAACAG	0.674
ACCGGGUGUGCUUUCCGGUCUGAUGAGUCCGUGAGGACGAAACUG	0.483
ACCGGGUGUGCUUUCCGGUCUGAUGAGUCCGUGAGGACGAAACCG	0.523
ACCGGGUGUGCUUUCCGGUCUGAUGAGUCCGUGAGGACGAAACGG	1.08
ACCGGGUGUGCUUUCCAGUCUGAUGAGUCCGUGAGGACGAAACAG	0.389
ACCGGGUGUGCUUUCCUGUCUGAUGAGUCCGUGAGGACGAAACAG	0.393
ACCGGGUGUGCUUUCCCGUCUGAUGAGUCCGUGAGGACGAAACAG	0.494
ACCGGGUGUGCUUUCCGGUCUGAUGAGUCCGUGAGGAUGAAACAG	0.629
ACCGGGUGUGCUUUCCGGUCUGAUGAGUCCGUGAGGAGGAAACAG	0.448
ACCGGGUGUGCUUUCCGGUCUGAUGAGUCCGUGAGGAAGAAACAG	0.454
ACCGGCUGCGCUUUCCGGUCUGAUGAGUCCGUGAGGACGAAACAG	0.486
ACCGGCUGGGCUUUCCGGUCUGAUGAGUCCGUGAGGACGAAACAG	0.578
ACCGGCUGAGCUUUCCGGUCUGAUGAGUCCGUGAGGACGAAACAG	0.479
ACCGGGUGUGCUUUCCGGUCUGAUGAAUCCGUGAGGACGAAACAG	0.657
ACCGGGUGUGCUUUCCGGUCUGAUGAUUCCGUGAGGACGAAACAG	0.356
